The values below come from article PMC10500007 (2023).

Residue numbers refer to the chain shown, from its start.

Assay [1] addresses T1, human integrin αvβ6 (soluble, construct not stated) (human, UniProt P06756 31-1048; P18564 22-709).
T1 chain 1: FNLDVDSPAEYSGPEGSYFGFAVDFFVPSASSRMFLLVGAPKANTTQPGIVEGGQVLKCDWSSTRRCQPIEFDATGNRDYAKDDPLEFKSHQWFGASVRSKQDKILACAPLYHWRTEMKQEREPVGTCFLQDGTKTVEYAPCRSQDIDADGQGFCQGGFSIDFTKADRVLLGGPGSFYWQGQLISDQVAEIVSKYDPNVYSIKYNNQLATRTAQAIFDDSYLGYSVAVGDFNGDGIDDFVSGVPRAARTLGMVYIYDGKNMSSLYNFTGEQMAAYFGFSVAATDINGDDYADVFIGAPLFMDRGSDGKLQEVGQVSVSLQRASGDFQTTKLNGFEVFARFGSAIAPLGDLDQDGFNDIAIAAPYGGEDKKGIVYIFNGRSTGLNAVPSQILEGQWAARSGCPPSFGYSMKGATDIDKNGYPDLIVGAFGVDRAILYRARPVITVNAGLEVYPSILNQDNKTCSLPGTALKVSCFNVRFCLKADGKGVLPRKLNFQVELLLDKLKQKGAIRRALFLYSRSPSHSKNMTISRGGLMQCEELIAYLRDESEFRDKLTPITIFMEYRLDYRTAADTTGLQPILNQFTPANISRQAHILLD
T1 chain 2: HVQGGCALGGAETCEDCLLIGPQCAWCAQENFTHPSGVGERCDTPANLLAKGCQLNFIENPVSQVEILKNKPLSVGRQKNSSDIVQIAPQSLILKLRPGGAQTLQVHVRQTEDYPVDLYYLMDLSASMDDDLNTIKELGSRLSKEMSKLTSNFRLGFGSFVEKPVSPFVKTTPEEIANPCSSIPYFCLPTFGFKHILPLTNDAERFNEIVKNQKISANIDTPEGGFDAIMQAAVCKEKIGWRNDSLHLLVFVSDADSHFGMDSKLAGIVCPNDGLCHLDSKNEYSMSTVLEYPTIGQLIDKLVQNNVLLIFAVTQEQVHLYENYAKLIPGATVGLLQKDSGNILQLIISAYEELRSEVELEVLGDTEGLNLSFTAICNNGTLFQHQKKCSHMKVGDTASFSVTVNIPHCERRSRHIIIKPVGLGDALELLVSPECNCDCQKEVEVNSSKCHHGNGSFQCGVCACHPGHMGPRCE
Briefly: BLI. On the technique in general: In BLI a coated tip is dipped into the sample, and binding shifts an interference pattern.

Assay [2] concerns the target recombinant human integrin αvβ6 headpiece (Expi293F) (human, UniProt P06756 31-429; P18564 130-371, I287C). Briefly: ELISA; competition with hLAP1.
Another assay deals with αIIbβ3 (Homo sapiens). Briefly: BLI.
In the next assay the target is T2, αvβ5 (Homo sapiens).
T2 chain 1: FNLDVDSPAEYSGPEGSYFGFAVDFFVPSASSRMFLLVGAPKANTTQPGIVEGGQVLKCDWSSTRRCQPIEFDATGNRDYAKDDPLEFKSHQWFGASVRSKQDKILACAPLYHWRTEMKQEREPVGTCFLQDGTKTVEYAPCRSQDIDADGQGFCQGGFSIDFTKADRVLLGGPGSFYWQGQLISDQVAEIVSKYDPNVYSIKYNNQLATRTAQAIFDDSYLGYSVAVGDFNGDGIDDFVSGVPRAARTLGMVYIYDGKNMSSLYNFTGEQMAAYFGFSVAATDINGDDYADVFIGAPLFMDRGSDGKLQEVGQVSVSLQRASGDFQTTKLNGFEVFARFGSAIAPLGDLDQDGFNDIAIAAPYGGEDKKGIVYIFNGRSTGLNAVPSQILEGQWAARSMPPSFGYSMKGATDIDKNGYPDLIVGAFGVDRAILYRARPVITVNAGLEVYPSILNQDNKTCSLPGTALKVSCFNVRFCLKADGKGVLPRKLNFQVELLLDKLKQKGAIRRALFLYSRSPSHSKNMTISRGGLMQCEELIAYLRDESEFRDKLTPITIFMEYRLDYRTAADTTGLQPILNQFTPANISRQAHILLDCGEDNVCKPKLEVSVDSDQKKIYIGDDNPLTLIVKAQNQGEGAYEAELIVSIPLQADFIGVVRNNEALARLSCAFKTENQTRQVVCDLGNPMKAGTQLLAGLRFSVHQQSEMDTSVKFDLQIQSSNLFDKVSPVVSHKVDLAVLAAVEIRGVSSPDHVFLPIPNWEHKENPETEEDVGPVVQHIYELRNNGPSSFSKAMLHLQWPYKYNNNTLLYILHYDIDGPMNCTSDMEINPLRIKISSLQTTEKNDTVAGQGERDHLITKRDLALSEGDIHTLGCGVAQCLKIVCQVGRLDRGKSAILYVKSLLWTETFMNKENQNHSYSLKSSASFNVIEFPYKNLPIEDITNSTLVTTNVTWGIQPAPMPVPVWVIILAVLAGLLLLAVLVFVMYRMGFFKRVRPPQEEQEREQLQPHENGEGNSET
T2 chain 2: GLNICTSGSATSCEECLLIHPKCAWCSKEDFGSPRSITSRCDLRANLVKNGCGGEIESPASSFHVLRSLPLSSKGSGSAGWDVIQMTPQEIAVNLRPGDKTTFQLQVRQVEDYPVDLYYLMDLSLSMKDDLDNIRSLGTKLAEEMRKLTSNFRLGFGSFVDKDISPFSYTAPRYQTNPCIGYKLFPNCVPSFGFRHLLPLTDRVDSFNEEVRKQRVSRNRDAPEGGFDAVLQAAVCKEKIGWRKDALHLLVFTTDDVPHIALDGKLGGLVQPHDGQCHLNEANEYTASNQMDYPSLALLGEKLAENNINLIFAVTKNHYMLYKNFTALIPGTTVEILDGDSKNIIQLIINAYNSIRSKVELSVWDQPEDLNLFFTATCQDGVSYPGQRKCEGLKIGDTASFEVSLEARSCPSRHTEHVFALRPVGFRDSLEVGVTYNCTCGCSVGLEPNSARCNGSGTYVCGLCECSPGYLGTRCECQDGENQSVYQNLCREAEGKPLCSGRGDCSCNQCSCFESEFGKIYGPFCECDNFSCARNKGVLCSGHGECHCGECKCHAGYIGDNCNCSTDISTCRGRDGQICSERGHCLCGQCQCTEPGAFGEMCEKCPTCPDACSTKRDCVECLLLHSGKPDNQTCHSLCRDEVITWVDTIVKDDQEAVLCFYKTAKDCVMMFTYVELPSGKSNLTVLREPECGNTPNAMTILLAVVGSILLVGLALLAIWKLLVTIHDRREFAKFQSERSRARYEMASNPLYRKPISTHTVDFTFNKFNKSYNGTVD
Briefly: BLI.

A further assay deals with α8β1 (Homo sapiens). Briefly: BLI.
Another assay addresses α5β1 (Homo sapiens). Briefly: BLI.
The target of a further assay is T3, αvβ3 (Homo sapiens).
T3 chain 1: T2 chain 1
T3 chain 2: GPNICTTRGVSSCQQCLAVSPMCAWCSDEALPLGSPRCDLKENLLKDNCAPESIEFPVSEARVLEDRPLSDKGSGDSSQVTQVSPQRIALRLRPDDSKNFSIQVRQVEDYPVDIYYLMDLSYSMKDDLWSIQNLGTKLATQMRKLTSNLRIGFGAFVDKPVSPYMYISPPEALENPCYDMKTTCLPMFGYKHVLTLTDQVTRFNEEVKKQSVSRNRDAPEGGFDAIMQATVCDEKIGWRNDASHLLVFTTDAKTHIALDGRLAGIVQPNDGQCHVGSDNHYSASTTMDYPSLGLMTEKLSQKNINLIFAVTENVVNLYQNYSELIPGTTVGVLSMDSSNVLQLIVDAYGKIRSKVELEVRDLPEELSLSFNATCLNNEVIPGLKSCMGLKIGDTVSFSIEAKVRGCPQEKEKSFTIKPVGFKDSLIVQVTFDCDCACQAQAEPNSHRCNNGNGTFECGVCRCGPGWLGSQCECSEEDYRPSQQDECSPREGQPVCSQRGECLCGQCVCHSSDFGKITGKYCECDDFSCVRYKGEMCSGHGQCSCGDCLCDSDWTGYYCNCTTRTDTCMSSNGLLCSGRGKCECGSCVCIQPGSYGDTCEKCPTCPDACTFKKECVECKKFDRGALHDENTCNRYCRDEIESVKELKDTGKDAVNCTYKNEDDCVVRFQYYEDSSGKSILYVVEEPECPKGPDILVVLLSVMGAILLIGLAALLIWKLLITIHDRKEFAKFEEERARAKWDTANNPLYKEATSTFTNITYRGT
Briefly: BLI.

Another assay concerns the target αvβ1 (Homo sapiens). Briefly: BLI.
For assay [3], the target named is recombinant human integrin αvβ8 headpiece (Expi293F) (human, UniProt P06756). Briefly: ELISA; competition with hLAP1. A general note: In an ELISA, binding on a coated surface is turned into a signal by an enzyme label.
Assay [4] has as its target T4, human integrin αvβ8 (soluble, construct not stated) (human, UniProt P06756 31-1048; P26012 43-684).
T4 chain 1: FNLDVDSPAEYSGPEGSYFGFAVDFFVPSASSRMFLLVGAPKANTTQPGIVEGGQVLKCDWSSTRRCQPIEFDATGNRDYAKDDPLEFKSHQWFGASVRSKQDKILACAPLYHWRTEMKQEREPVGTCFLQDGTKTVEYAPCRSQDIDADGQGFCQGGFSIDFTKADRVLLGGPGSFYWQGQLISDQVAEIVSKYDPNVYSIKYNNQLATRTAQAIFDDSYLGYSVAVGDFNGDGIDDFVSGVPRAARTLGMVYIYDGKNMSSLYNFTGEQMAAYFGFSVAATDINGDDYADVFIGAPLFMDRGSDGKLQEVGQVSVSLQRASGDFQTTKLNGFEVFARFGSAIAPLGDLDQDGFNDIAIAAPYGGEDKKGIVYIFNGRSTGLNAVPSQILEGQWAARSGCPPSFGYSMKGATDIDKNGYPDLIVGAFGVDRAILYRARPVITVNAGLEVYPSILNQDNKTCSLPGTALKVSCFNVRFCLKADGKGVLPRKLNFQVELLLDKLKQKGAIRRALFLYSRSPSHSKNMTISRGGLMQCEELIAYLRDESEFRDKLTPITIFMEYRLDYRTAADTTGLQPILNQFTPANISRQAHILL
T4 chain 2: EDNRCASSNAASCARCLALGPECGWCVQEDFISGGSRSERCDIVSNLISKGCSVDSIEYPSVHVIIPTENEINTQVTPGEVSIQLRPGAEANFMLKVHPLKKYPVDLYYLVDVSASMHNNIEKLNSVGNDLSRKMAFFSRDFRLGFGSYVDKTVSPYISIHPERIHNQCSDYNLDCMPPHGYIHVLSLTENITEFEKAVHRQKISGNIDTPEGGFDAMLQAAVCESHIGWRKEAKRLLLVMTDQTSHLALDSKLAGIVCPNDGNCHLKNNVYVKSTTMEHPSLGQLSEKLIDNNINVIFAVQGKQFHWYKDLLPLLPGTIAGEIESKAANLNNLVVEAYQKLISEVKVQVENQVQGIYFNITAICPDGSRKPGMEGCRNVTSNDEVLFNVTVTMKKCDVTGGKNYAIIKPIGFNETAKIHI
Briefly: BLI.

αvβ1 (Homo sapiens), sequence (chain, as listed by the source, chain 2 of 2, one chain of several): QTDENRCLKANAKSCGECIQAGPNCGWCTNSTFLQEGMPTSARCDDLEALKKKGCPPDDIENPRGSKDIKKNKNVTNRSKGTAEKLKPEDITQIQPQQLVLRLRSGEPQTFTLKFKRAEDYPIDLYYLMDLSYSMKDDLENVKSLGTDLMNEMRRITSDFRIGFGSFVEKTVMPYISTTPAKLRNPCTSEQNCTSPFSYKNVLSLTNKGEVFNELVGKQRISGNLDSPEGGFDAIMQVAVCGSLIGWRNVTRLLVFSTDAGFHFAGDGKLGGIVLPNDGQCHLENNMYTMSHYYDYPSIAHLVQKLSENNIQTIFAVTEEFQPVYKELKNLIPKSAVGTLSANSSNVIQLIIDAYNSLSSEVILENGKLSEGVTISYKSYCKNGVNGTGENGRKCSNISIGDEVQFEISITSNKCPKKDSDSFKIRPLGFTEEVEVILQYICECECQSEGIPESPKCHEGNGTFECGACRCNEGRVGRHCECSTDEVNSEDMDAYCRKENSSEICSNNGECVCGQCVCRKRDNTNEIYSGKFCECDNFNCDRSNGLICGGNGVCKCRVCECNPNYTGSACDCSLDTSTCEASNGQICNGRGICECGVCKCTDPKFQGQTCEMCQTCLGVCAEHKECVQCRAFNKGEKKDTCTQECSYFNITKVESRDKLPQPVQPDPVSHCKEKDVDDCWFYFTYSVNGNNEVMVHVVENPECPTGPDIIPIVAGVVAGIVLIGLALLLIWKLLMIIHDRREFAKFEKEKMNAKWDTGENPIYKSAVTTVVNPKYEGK
α8β1 (Homo sapiens), sequence (chain, as listed by the source, chain 1 of 2): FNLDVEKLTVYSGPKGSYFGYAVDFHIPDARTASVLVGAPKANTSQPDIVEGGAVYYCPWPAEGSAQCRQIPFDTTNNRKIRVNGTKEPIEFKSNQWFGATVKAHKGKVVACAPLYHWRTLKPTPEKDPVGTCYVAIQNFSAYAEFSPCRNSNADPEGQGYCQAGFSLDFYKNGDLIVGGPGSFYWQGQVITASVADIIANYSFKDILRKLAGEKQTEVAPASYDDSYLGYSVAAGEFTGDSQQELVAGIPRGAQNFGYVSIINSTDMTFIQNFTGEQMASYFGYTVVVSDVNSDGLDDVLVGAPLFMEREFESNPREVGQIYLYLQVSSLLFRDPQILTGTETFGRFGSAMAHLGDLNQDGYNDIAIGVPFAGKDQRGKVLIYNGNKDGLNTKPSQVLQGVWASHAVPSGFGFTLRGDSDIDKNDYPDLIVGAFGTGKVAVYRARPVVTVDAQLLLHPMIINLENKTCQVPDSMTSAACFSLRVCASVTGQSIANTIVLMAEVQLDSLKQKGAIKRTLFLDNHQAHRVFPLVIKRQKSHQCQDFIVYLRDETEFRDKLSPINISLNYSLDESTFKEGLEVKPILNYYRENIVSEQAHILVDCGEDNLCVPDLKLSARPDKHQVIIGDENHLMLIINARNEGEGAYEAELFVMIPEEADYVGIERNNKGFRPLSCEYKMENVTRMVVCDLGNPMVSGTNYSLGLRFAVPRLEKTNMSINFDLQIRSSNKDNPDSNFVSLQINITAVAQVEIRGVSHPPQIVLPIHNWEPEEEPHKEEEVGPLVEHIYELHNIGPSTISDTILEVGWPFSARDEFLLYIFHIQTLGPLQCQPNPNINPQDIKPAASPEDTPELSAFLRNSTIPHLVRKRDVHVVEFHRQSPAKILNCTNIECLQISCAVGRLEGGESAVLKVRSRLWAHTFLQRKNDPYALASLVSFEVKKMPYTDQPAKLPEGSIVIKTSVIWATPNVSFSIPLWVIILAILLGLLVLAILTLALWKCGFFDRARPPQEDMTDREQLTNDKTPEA
α8β1 (Homo sapiens), sequence (chain, as listed by the source, chain 2 of 2): as the sequence (chain, as listed by the source, chain 2 of 2, one chain of several) above
α5β1 (Homo sapiens), sequence (chain, as listed by the source, chain 1 of 2): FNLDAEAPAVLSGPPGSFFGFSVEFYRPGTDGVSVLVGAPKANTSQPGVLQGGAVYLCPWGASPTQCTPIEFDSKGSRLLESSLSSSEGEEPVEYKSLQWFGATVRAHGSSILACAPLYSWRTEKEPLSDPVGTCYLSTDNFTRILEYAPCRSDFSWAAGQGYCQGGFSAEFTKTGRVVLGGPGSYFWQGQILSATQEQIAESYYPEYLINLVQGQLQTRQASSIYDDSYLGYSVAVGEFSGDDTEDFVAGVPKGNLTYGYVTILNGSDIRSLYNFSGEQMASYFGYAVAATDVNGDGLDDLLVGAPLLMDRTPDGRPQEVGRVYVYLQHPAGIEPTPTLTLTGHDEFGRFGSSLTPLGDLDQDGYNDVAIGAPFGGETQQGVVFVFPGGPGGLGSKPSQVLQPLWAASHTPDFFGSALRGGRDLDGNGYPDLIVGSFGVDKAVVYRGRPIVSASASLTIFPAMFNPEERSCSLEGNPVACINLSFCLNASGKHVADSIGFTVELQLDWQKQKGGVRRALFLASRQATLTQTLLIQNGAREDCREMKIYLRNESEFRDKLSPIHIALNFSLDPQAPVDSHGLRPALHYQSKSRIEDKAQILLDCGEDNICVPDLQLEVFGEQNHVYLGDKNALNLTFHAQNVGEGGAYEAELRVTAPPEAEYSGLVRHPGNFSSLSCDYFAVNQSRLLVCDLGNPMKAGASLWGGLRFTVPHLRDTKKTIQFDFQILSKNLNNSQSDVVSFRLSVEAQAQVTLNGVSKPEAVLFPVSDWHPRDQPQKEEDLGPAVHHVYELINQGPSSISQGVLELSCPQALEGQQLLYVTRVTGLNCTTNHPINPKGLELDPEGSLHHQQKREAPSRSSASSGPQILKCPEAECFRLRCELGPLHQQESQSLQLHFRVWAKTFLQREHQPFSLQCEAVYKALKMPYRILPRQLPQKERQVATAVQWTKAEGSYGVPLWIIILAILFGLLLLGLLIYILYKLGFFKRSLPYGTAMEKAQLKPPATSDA
α5β1 (Homo sapiens), sequence (chain, as listed by the source, chain 2 of 2): as the sequence (chain, as listed by the source, chain 2 of 2, one chain of several) above
recombinant human integrin αvβ8 headpiece (Expi293F), sequence (P06756 whole entry, looked up): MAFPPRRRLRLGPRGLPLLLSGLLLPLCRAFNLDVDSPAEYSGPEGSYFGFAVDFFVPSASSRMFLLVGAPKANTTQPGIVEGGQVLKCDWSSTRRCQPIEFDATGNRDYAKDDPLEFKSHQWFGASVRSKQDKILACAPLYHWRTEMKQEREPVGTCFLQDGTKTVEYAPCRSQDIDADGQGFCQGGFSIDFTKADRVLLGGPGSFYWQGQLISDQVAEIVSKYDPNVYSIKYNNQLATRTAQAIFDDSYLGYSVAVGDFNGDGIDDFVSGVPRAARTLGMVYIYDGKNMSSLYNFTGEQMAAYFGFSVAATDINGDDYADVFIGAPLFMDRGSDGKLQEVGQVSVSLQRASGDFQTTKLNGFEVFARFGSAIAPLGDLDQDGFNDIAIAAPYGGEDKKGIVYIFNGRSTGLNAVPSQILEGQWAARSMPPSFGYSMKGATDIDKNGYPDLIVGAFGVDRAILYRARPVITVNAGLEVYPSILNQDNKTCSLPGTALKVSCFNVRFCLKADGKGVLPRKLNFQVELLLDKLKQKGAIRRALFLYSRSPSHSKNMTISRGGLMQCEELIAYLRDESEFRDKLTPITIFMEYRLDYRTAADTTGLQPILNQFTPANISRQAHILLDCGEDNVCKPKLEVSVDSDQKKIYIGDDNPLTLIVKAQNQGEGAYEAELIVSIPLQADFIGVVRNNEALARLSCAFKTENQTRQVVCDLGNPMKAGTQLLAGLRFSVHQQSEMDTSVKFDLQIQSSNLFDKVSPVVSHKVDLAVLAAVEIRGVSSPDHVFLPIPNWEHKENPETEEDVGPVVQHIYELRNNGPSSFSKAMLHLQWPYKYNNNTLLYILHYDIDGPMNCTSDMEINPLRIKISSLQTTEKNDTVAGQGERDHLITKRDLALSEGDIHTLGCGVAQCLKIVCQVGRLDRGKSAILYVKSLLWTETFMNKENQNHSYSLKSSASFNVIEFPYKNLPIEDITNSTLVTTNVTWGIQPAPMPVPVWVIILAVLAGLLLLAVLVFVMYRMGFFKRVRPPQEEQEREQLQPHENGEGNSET

B1: MAVI (protein)
chain: TKCVVRFNFRGDMAVIALKAVKDHLKKEGPHWNITTHNDDEVYLVVRGIHESDAKRIAKWVESTIPGISVETQCD
modifications: N/C-terminal disulfide staple (Cys3-Cys74); B8_BP_dslf with MAVY motif changed to MAVI
Take B1: in assay [1], the Kd (as a rule, the concentration at which binding is half-saturated) stood at 1.2 nM.

B2: B8_BP-LATY (designed binder)
chain: B1 chain with M13L, V15T, I16Y
Molecule B2 returned a Kd in assay [1] of more than 500 nM.

B3: MATI (protein)
chain: B1 chain with V15T
modifications: N/C-terminal disulfide staple (Cys3-Cys74); B8_BP_dslf with MAVY motif changed to MATI
B3 registered a Kd in [1] of 1.2 nM.

B4: B8_BP_dslf (designed binder)
chain: B1 chain with I16Y
Consider B4, for which the concentration for half-maximal inhibition (IC50) (usually the concentration at which inhibition is half-maximal) in assay [2] was more than 500 nM. In assay [1], this molecule displayed a Kd of more than 1000 nM.

B5: B8_BP-LATY (designed binder)
chain: B1 chain with M13L, V15T, I16Y
modifications: full-length mature chains taken as on K562 cells; soluble ectodomain possible for BLI; divalent cations, glycosylated
For the molecule B5, the dissociation constant Kd with αIIbβ3, with αvβ5, in the assay with α8β1, in the assay with α5β1, with αvβ3 and with αvβ1 was more than 1000 nM each time.

B6: B6_BP_dslf (designed binder)
chain: TKCVVRFVFRGDLAELMLRAVKDHLKKEGPHWNITSTNNGKELVVRGIHESDAKRIAKWVEKRFPRVHTETQCD
modifications: full-length mature chains taken as on K562 cells; soluble ectodomain possible for BLI; divalent cations, glycosylated
In the case of B6, the equilibrium dissociation constant (Kd) with αIIbβ3, with αvβ5, in the assay with α8β1, with α5β1, with αvβ3 and with αvβ1 was more than 200 nM each time.

B7: B6_BP_dslf (designed binder)
chain: B6 chain
Take B7: the IC50 in assay [3] was approximately 80 nM. In addition, the figures for the equilibrium dissociation constant (Kd) in assay [1] and in [4] were 0.11 nM and 580 nM, respectively.
